The results in this text go back to patent publication US20150239980A1 (NEOTOPE BOSCIENCES, published 2015).

A value given as a limit tells only on which side of the number the result lay.

In general, Kd refers to the constant that tells how readily two partners part at equilibrium.

Assay [1] concerns the target T1, recombinant human laminin 511 (Biolamina) (human, UniProt O15230 36-3695; P07942 22-1786; P11047 34-1609).
T1 construct: negative control; also called laminin 10 (α5β1γ1)
In words: SPR, Biacore T200.

For assay [2], the target named is T2, Recombinant human laminin-α4 (R&D systems) (human, UniProt Q16363-2 826-1816).
T2 construct: also called laminin α-4 chain
T2 sequence (looked up): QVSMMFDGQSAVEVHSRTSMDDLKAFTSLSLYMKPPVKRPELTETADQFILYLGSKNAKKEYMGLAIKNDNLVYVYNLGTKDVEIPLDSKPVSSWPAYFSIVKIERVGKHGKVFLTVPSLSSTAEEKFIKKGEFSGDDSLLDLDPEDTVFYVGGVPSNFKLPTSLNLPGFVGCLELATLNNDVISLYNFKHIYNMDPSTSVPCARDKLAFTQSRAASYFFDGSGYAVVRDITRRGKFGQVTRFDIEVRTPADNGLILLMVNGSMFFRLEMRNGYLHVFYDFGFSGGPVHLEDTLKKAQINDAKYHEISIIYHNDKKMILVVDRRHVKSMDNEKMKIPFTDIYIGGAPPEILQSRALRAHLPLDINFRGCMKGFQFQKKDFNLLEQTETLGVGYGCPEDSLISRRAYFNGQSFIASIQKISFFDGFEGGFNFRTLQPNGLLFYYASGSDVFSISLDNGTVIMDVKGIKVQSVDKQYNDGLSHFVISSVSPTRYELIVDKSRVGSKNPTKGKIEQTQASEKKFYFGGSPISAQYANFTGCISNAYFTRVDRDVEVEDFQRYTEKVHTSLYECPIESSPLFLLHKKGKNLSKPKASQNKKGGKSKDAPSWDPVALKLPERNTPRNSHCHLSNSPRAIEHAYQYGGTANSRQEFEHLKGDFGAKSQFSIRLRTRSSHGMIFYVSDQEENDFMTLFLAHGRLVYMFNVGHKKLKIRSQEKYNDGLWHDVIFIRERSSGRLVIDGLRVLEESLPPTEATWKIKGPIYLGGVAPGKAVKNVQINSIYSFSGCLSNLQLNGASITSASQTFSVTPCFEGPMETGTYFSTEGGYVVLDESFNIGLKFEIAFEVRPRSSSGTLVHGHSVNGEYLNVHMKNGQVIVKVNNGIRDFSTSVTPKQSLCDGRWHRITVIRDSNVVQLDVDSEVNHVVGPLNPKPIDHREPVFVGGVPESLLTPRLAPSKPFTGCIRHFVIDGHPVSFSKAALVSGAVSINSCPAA
Nature of the assay: SPR, Biacore T200, Fc-tagged MCAM IgG1-2A captured by anti-Fc, laminin-α4 as analyte, 1:1 model. As for the experimental part: (§1) The binding affinity of the human laminin-α4 to human MCAM IgG1-2A was measured by Surface Plasmon Resonance on a Biacore T200 machine. Human Fc-specific F(ab′)₂ IgG (Jackson Laboratories) was immobilized on a CM5 chip using amine coupling. The four flow cells of the CM5 chips dextran surface are activated by a 7 min injection of freshly prepared 1:1 50 mM NHS: EDC at a flow rate of 5 μl/min. 70 μl IgG solution (pH 4.5) was injected for 3 min to a density of up to 3 000 RU. The coupling is then blocked by a 7 min injection of 1M ethanolamine to deactivate residual reactive sites. Recombinant human Fc-tagged MCAM IgG1-2A in degassed and filtered HBS-P buffer containing 12 mg/ml BSA and 12 mg/ml carboxy-methylated dextran sodium salt was captured by anti-Fc IgG to a capture level 1560 RU. Recombinant human Fc-tagged MCAM IgG1-2A was centrifuged at 14 000 rpm for 5 min at 4° C. before injection for 20 min at a flow rate of 5 μl/min over the anti-Fc IgG containing surface. Flow cell 1 was left free of IgG to serve as a control surface. One flow cell was used to capture recombinant human IgG1 Fc (R&D systems) to serve as a negative control. […] Buffer injections served as negative control. Data evaluation: Data from the buffer injections and the control surface were subtracted to remove artifacts. […]
On the technique in general: Surface plasmon resonance follows binding to a sensor surface in real time, without labels.

Assay [3] deals with T3, recombinant human laminin 411 (Biolamina) (human, UniProt Q16363 25-1823; P07942 22-1786; P11047 34-1609).
T3 construct: also called laminin 8
T3 sequence (P07942 22-1786, chain 2 of 2): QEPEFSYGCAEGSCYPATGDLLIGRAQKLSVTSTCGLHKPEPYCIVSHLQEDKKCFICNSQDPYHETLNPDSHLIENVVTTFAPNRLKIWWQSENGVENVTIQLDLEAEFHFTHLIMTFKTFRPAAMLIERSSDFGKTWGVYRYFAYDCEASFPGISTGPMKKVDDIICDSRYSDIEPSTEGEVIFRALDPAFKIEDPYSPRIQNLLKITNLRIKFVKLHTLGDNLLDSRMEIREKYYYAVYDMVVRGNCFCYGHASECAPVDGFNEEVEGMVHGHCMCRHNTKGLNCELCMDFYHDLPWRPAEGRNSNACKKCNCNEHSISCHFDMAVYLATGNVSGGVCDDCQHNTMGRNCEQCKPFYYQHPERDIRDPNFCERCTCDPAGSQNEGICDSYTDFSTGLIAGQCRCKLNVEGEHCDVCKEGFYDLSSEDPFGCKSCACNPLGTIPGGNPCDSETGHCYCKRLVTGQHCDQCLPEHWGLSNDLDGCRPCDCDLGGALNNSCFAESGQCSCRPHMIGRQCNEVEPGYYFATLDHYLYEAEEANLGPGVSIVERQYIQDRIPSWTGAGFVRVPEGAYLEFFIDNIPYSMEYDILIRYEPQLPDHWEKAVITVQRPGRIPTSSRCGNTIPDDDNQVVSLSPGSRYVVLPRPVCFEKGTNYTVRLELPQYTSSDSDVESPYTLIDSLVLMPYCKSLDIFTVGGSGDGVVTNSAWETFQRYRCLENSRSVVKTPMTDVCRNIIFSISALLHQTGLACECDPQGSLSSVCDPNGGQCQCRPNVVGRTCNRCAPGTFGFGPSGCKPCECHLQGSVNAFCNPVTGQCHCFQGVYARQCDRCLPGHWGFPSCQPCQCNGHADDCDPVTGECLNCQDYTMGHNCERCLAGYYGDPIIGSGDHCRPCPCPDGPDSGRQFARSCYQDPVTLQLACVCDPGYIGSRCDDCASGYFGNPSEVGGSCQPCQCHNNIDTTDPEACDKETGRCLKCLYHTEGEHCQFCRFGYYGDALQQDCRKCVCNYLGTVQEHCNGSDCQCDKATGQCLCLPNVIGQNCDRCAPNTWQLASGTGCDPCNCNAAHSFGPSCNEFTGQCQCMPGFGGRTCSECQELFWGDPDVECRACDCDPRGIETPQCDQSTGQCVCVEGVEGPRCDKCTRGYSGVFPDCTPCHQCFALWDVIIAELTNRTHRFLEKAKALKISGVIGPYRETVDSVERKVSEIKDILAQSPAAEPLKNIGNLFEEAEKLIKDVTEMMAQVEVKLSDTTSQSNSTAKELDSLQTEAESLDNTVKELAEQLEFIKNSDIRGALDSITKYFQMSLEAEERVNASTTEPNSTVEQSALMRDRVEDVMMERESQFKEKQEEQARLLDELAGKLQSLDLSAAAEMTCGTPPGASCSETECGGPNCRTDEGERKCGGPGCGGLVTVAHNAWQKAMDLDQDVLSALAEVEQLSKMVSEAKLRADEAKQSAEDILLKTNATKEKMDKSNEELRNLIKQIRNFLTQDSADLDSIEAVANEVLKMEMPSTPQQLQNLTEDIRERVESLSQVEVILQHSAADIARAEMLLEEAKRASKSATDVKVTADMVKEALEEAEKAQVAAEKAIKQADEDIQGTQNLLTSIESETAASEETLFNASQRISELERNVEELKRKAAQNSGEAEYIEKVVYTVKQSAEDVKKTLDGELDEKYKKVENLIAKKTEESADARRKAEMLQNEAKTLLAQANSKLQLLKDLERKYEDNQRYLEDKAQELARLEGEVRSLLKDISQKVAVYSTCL
T3 sequence (P11047 34-1609, chain 3 of 2): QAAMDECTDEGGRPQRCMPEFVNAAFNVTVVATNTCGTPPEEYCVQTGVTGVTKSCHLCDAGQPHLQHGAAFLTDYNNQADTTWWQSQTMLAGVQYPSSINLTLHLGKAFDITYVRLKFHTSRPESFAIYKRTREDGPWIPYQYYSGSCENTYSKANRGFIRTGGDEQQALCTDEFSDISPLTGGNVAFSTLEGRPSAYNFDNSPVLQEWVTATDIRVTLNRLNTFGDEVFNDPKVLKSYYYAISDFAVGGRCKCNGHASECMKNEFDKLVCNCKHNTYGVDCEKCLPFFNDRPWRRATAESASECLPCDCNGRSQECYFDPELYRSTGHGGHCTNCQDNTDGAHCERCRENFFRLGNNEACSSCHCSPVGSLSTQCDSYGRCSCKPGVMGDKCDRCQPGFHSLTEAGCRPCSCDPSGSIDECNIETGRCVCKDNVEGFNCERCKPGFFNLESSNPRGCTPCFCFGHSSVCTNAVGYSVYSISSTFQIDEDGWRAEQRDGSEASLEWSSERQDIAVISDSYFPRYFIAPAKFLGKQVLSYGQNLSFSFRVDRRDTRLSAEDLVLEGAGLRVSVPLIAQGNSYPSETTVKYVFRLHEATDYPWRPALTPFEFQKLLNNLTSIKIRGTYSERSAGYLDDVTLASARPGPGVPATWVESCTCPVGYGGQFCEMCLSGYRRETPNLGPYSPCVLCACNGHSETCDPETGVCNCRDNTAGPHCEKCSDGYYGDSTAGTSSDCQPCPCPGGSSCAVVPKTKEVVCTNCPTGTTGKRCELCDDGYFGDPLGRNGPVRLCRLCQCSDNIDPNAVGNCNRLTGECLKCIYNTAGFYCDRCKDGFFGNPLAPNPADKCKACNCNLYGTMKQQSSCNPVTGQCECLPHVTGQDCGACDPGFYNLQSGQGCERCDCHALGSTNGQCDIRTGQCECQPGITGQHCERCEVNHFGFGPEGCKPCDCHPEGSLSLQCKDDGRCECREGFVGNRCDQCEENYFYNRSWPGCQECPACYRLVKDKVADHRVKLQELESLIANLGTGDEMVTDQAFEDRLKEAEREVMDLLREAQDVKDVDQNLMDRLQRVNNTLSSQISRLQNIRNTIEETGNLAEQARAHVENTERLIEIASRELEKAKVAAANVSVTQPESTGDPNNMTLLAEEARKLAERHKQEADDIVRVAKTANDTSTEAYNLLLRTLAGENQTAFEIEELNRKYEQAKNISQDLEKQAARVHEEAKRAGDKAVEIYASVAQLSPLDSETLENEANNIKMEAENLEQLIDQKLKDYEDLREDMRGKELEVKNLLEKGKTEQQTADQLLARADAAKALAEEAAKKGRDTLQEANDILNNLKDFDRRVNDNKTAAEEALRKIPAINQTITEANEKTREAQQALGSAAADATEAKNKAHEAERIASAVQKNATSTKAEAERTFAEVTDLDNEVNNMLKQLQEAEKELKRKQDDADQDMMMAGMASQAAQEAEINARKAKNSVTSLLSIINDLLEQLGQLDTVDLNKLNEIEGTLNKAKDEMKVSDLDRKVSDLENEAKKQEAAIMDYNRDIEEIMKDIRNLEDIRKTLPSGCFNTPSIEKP
In words: SPR, Biacore T200, Fc-tagged MCAM IgG1-2A captured by anti-Fc, laminin 411 as analyte, steady state. The method, then:
as §1

In assay [4] the target is T4, human MCAM (melanoma cell adhesion molecule) expressed on transfected CHO cells (human, UniProt P43121 24-646).
T4 construct: also called hMCAM; CD146
T4 chain: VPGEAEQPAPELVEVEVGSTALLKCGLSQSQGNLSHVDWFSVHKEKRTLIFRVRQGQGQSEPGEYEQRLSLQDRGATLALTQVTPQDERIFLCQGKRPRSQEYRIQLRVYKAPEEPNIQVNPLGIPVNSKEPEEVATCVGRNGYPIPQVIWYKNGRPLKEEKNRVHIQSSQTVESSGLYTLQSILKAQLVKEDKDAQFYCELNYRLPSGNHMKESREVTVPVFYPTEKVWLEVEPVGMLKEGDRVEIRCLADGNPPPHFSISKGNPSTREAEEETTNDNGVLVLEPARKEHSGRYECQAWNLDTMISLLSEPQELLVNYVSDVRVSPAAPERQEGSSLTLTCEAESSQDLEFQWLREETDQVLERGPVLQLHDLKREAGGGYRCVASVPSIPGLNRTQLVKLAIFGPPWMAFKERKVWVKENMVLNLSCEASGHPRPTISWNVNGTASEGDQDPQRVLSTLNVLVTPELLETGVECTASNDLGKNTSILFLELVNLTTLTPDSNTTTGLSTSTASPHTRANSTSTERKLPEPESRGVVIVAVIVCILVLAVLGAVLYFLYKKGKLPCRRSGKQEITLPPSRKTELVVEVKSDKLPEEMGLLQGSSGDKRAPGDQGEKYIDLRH
In words: laminin/FACS on hMCAM CHO cells, competitor laminin 411; Expt#2; seems to serve as the reference of the 2107 family in this column.

In assay [5] the target is T5, recombinant hMCAM-His (human, UniProt P43121 24-559).
T5 construct: not shown: His tag
T5 chain: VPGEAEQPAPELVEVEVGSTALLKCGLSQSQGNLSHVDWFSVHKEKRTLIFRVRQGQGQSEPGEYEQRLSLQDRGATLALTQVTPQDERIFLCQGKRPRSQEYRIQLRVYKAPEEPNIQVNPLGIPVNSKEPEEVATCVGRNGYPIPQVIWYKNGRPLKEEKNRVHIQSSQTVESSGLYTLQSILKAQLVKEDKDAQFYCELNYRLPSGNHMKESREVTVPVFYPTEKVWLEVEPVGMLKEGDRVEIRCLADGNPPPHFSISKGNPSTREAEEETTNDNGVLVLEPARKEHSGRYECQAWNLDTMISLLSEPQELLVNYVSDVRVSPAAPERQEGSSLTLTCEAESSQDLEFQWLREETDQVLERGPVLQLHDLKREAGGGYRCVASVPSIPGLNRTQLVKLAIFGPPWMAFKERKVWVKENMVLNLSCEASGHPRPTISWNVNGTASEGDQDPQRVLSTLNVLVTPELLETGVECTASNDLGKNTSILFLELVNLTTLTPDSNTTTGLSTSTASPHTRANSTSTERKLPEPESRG
Nature of the assay: competitive ELISA on hMCAM-His, competitor biotinylated rodent or chimeric 2107; Expt. #2; vs rodent 2107. As for the experimental part: (§2) ELISA plates were coated with recombinant hMCAM-His, and blocked with casein buffer to prevent non-specific binding. Biotinylated rodent or chimeric antibody was added at a subsaturating concentration, in the presence or absence of 3× increasing concentrations of unlabeled competitor (humanized antibody, rodent, or chimeric). After washing to remove unbound antibody, streptavidin HRP was added to allow detection of the biotinylated antibody. The ELISA was developed with TMB substrate and the OD450 was measured. The IC50 of the unlabeled competitor was determined using the GraphPad Prism5 software.
(In an ELISA, binding on a coated surface is turned into a signal by an enzyme label.)

In assay [6] the target is T5, recombinant hMCAM-His. In words: competitive ELISA on hMCAM-His, competitor biotinylated rodent or chimeric 2107; Expt. #1; vs rodent 2107. In outline: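 Plates coated with recombinant hMCAM-His and casein-blocked; biotinylated rodent or chimeric antibody at subsaturating level competed by 3× serial concentrations of unlabeled humanized, rodent or chimeric antibody. Bound biotinylated antibody detected with streptavidin-HRP/TMB at OD450; competitor IC50 fitted.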

Assay [7] has as its target T5, recombinant hMCAM-His. Nature of the assay: ForteBio Octet Red, hMCAM-His analyte; Forte column 1; vs rodent 2120. The method, then: (§3) The affinities were measured using the ForteBio Octet Red. Anti-human Fc sensors were used to capture the humanized antibodies, and several concentrations of hMCAMHis analyte were used to determine the affinity using a 1:1 fitting model.

The target in assay [8] is T5, recombinant hMCAM-His. In words: competitive ELISA on hMCAM-His, competitor biotinylated rodent or chimeric 2120; vs rodent 2120. The method, then: as §2
For assay [9], the target named is T4, human MCAM (melanoma cell adhesion …). Nature of the assay: laminin/FACS blocking assay, % inhibition of laminin 411 binding to hMCAM-expressing CHO cells against antibody concentration; blocked ligand: laminin 411. As for the experimental part:
(§4) Following incubation for 30-45 minutes, the cells were washed and anti-laminin conjugated to AF650 (NovusBio) was added to detect the bound laminin. The cells were run on a flow cytometer to measure the laminin binding signal.

In assay [10] the target is T5, recombinant hMCAM-His. Nature of the assay: summary of ForteBio and competitive ELISA on hMCAM-His; vs rodent 2120. The method, then:
as §2, §3

Assay [11] deals with T4, human MCAM (melanoma cell adhesion …). Nature of the assay: summary of laminin blocking assay on hMCAM CHO cells, competitor laminin 411; vs rodent 2120. The method, then: as §4
Assay [12] has the same target. In words: laminin/FACS on hMCAM CHO cells, competitor laminin 411; Expt#2; vs rodent 2120. The method, then:
as §4

The target is the same in assay [13]. Nature of the assay: laminin/FACS on hMCAM CHO cells, competitor laminin 411; Expt#1; vs rodent 2120. As for the experimental part:
as §4

Assay [14] deals with T5, recombinant hMCAM-His. Nature of the assay: ForteBio Octet Red, hMCAM-His analyte; Forte column 2; vs rodent 2120. As for the experimental part: as §3
For orientation: In BLI a coated tip is dipped into the sample, and binding shifts an interference pattern.

B1: Recombinant human Fc-tagged MCAM IgG1-2A (human MCAM domains 1 and 2, amino acids 19-242) (Fc fusion)
chain: PRVAGVPGEAEQPAPELVEVEVGSTALLKCGLSQSQGNLSHVDWFSVHKEKRTLIFRVRQGQGQSEPGEYEQRLSLQDRGATLALTQVTPQDERIFLCQGKRPRSQEYRIQLRVYKAPEEPNIQVNPLGIPVNSKEPEEVATCVGRNGYPIPQVIWYKNGRPLKEEKNRVHIQSSQTVESSGLYTLQSILKAQLVKEDKDAQFYCELNYRLPSGNHMKESREVT
notes: also called human MCAM IgG1-2A; MCAM Fc domains 1 and 2; not shown: human Fc tag
With B1, the binding result in assay [1] was “no binding (tested: 5-175 nM)”. Further, the Kd in [2] was determined as 60 nM; in [3] it was 66 nM.

B2: chimeric 2107 (antibody, V domains shown)
VH: QVQLKESGPGLVQSSQTLSLTCTVSGFSLTSNGVSWVRQPPGKGLEWIAAISSGGSTYYNSAFKSRLSISRNTSKSQVLLKMNSLQTEDTGMYFCARHRPFYFDYWGQGVMVTVSS
VL: DIQVTQSPSLLSASVGDRVTLNCKGSQNIYKSLAWFRLKRGEAPKLLIYDANSLQTGIPSRFSGSGSGTDFTLTITSLQPEDVATYFCQQYYSGYTFGAGTKLELK
B2: the “fold over rodent (blocking, laminin/FACS)” value in assay [4] is 1 fold. Moreover, the “fold over rodent (competitive ELISA)” value is 1.01 fold in assay [5] and 0.68 fold in assay [6].

B3: h2120_VH5 + h2120_VL3 (antibody, human IgG1, V domains shown)
VH: QVTLKESGPVLVKPTETLTLTCTVSGFSLTSNAVSWVRQPPGKALEWIAAISSGGTTYYNSAFKSRLTISRDTSKSQVVLTMTNMDPVDTATYYCARRYGYGWYFDFWGQGTLVTVSS
VL: DIQMTQSPSSLSASVGDRVTINCKASQNIYNSLAWYQQKPGKAPKVLIFNANSLQTGIPSRFSGSGSGTDFTLTISSLQPEDFATYYCQQFYSGYTFGQGTKLEIK
notes: also called h2120VH5VL3; VH5VL3
Consider B3, for which the “fold over rodent (Forte affinity)” value in [7] stood at 1.1 fold; in assay [14] it was 1.2 fold. Besides, in assay [8], the “fold over rodent (competitive ELISA)” value worked out at 2.4 fold. In addition, the “IC50 (read off the curve)” value in assay [9] was roughly 0.6 µg/mL. In addition, in assay [10], the “fold reduction in affinity compared to the rodent” value was less than 2 fold. Besides, the “fold reduction in potency compared to the rodent” value in assay [11] was less than 2 fold. In addition, the “fold over rodent (blocking, laminin/FACS)” value in [12] was found to be 1.5 fold; in [13], 1.2 fold.
